Assay results taken from patent US20170212130A1 (ROCKEFELLER UNIVERSITY, published 2017).

B1: LaG-3 (VHH)
VHH: QVQLVESGGGLVQAGGSLRVSCAASGRTYSDYAMGWFRQAPGKERDFVAGISGSGGDTYYADSVKGRFTISRDNAKNTMYLQMNSLKPEDTAVYFCAARTGTVLFTSRVDYRYWGQGTQVTV
B2: LaG-6 (VHH)
VHH: QVQLVESGGGLVQAGGSLRLSCAASGRTFSTSAMAWFRQAPGKEREFAAGITWISSSTYYTDSVKGRFTISRDNAKNTVYLQMNSLKPEDTAVYYCAAKSEGYFGFPRVENEYPYWGQGTQVTV
B3: LaG-10 (VHH)
VHH: QVQLVESGGGLVQAGDSLQLSCAFSGGTFSTYAMGWFRQAPGKEREFVGGISRSGATTNYEDSVKGRFTISKDNTKNTVYLQLNSLKPEDTAVYYCAARNNILPVTTIDKYEYWGQGTQVTV
B4: LaG-14 (VHH)
VHH: QVQLVESGGGLVQAGGSLRLSCAASGRTYSISAMGWFRQAPGKEREFVAGISRSGGTTYYADPVKGRFTISRDNAKNTVYLQMNSLKPEDTAVYYCAARARGWTTFPAREIEYDYWGQGTQVTV
B5: LaG-16 (VHH)
VHH: QVQLVESGGRLVQAGDSLRLSCAASGRTFSTSAMAWFRQAPGREREFVAAITWTVGNTILGDSVKGRFTISRDRAKNTVDLQMDNLEPEDTAVYYCSARSRGYVLSVLRSVDSYDYWGQGTQVTVS
modifications: Conjugated to Alexa Fluor 568 (succinimidyl ester, on amines) in the microscopy result. The letters are unchanged.
notes: Conjugated to Alexa Fluor 568 for microscopy
B6: LaG-21 (VHH)
VHH: QVQLVESGGGLVQAGGSLRLSCAASGPTGAMAWFRQAPGMEREFVGGISGSETDTYYADFVKGRLTVDRDNVKNTVDLQMNSLKPEDTAVYYCAARRRVTLFTSRADYDFWGQGTQVTVS
B7: LaG-26 (VHH)
VHH: QVQLVESGGGLVQAGASMRLSCAASGITFSLYHWVWFRQAAGREHEFVAGIIRSGGETLSADSVKDRFIISRDDAKNTLYLQMNMLQPEDTATYYCAATHRADWYSSAFREYIFRGQGTQVTVS
B8: LaG-27 (VHH)
VHH: DVQLVESGGGLVQAGGSLRLSCTASGLTISTYNIGWFRQAPGKEREFVGIIIRNGDTTYYADSVKGRFTISRDNAKNTVYLQMNSVKPADAAVYSCGATVRAGAAAEQYNSYIFRGQGTQVTV
B9: LaG-29 (VHH)
VHH: QVQLVESGGGLVQAGAALRLSCAASGGTFSFYNMGWFRQAPGKEREFVVSISRSGGGTAYADSVKGRFTISRDNAKNTAYLQMNSLKPEDTAVYYCAAGLRDWGREGEPHYWGQGTQVTVS
B10: LaG-30 (VHH)
VHH: QVQLVESGGGLVQAGGSLRLSCAASGRTFSTSAMGWFRQAPGREREFVAAITWTVGNTIYGDSMKGRFTISRDRTKNTVDLQMDSLKPEDTAVYYCTARSRGFVLSDLRSVDSFDYKGQGTQVTVS
B11: LaG-42 (VHH)
VHH: DVQLVESGGGLVQAGDSLRLSCAASGPTGAMAWFHQGLGKEREFVGGISPSGDNIYYADSVKGRFTIDRDNAKNTVSLQMNSLKPEDMGVYYCAARRRVTLFTSRTDYEFWGRGTQVTVS
B12: LaG-17 (VHH)
VHH: DVQLVESGGGLVQAGGSLRLSCAASGRTISMAAMSWFRQAPGKEREFVAGISRSAGSAVHADSVKGRFTISRDNTKNTLYLQMNSLKAEDTAVYYCAVRTSGFFGSIPRTGTAFDYWGQGTQVTVS

These binders were tested against T1, GFP-His6 (eGFP) (Aequorea victoria, UniProt P42212 2-238 = GFP) (assay: SPR, GFP immobilized).
T1 construct: SPR and bead assays speak only of recombinant GFP or eGFP; also called recombinant GFP; A. victoria (Av) GFP
B1 showed a Kd of 25 nM. B2 gave a Kd of 310 nM. B3 gave a Kd of 97 nM. In the case of B4, the Kd is reported as 1.9 nM. Work on B5 yielded a Kd of 0.7 nM. B6 was tested, and the Kd was 7 nM. For B7, the Kd was 2.6 nM. In the case of B8, the Kd is reported as 9.5 nM. Binder B9 has a Kd of 110 nM. For B10, the Kd was 0.5 nM. Work on B11 yielded a Kd of 600 nM.

These binders were tested against T2, DsRed (Discosoma sp., UniProt Q9U6Y8 1-225) (assay: bead binding: nanobody-Dynabeads + fluorescent protein, eluate on SDS-PAGE).
T2 construct: Recombinant fluorescent protein; construct not described; also called standard DsRed; DsRed from Discosoma (Ds)
T2 sequence (Q9U6Y8 whole entry): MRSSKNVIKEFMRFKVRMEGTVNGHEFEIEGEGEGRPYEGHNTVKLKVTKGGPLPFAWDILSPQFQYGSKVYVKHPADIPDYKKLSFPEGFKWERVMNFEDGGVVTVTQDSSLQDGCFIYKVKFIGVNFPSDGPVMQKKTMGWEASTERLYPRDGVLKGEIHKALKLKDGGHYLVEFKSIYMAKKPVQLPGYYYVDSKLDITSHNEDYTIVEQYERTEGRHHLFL
B1: no binding. B4: no binding. B5: no binding. B6: no binding. B7: no binding. B8: no binding. B10: no binding. B12: no binding.

The binders below were run against T1, GFP-His6 (eGFP) (assay: SPR, GFP immobilized, Langmuir fit; no unit printed [continued]).
B7 showed a Kd of 2.6 nM. Binder B8 has a Kd of 9.5 nM. B9 gave a Kd of 110 nM. Work on B10 yielded a Kd of 0.5 nM.

These binders were tested against T1, GFP-His6 (eGFP) (assay: SPR, GFP immobilized, Langmuir fit; unit inferred).
B1 showed a Kd of 25 nM. B2 gave a Kd of 310 nM. B3 gave a Kd of 97 nM. Work on B4 yielded a Kd of 1.9 nM. With B5 the Kd was 0.69 nM. Binder B12 has a Kd of 48 nM.
